B1: Speckle-type POZ protein (Homo sapiens), O43791 (parent)
chain: MSRVPSPPPPAEMSSGPVAESWCYTQIKVVKFSYMWTINNFSFCREEMGEVIKSSTFSSGANDKLKWCLRVNPKGLDEESKDYLSLYLLLVSCPKSEVRAKFKFSILNAKGEETKAMESQRAYRFVQGKDWGFKKFIRRDFLLDEANGLLPDDKLTLFCEVSVVQDSVNISGQNTMNMVKVPECRLADELGGLWENSRFTDCCLCVAGQEFQAHKAILAARSPVFSAMFEHEMEESKKNRVEINDVEPEVFKEMMCFIYTGKAPNLDKMADDLLAAADKYALERLKVMCEDALCSNLSVENAAEILILADLHSADQLKTQAVDFINYHASDVLETSGWKSMVVSHPHLVAEAYRSLASAQCPFLGPPRKRLKQS

Variants of: B1
Conditions: with brd4_human BRD4, O60885

Variant	effect of a mutation on the interaction
F102C	disrupting interaction strength

Variants of: B1
Conditions: with ncoa3_human NCOA3, Q9Y6Q9

Variant	effect of a mutation on the interaction
F102C	disrupting interaction strength

Variants of: B1
Conditions: with jun_human JUN

Variant	effect of a mutation on the interaction
F102C	disrupting interaction strength

Variants of: B1
Conditions: with akt1_human AKT1, P31749

Variant	effect of a mutation on the interaction
F102C	with no effect

Variants of: B1
Conditions: with alk_human ALK

Variant	effect of a mutation on the interaction
F102C	with no effect

Variants of: B1
Conditions: with aph1a_human APH1A

Variant	effect of a mutation on the interaction
F102C	with no effect

Variants of: B1
Conditions: with arnt_human ARNT

Variant	effect of a mutation on the interaction
F102C	with no effect

Variants of: B1
Conditions: with arc1a_human ARPC1A

Variant	effect of a mutation on the interaction
F102C	with no effect

Variants of: B1
Conditions: with bakor_human ATG14, Q6ZNE5

Variant	effect of a mutation on the interaction
F102C	with no effect

Variants of: B1
Conditions: with atm_human ATM

Variant	effect of a mutation on the interaction
F102C	with no effect

Variants of: B1
Conditions: with atpb_human ATP5F1B

Variant	effect of a mutation on the interaction
F102C	with no effect

Variants of: B1
Conditions: with aurkb_human AURKB

Variant	effect of a mutation on the interaction
F102C	with no effect

Variants of: B1
Conditions: with axin2_human AXIN2, Q9Y2T1

Variant	effect of a mutation on the interaction
F102C	with no effect

Variants of: B1
Conditions: with ufo_human AXL

Variant	effect of a mutation on the interaction
F102C	with no effect

Variants of: B1
Conditions: with za2g_human AZGP1, P25311

Variant	effect of a mutation on the interaction
F102C	with no effect

Variants of: B1
Conditions: with bap1_human BAP1, Q92560

Variant	effect of a mutation on the interaction
F102C	with no effect

Variants of: B1
Conditions: with bard1_human BARD1, Q99728

Variant	effect of a mutation on the interaction
F102C	with no effect

Variants of: B1
Conditions: with bcor_human BCOR

Variant	effect of a mutation on the interaction
F102C	with no effect

Variants of: B1
Conditions: with birc2_human BIRC2, Q13490
birc2_human BIRC2, Q13490, sequence (Q13490 whole entry): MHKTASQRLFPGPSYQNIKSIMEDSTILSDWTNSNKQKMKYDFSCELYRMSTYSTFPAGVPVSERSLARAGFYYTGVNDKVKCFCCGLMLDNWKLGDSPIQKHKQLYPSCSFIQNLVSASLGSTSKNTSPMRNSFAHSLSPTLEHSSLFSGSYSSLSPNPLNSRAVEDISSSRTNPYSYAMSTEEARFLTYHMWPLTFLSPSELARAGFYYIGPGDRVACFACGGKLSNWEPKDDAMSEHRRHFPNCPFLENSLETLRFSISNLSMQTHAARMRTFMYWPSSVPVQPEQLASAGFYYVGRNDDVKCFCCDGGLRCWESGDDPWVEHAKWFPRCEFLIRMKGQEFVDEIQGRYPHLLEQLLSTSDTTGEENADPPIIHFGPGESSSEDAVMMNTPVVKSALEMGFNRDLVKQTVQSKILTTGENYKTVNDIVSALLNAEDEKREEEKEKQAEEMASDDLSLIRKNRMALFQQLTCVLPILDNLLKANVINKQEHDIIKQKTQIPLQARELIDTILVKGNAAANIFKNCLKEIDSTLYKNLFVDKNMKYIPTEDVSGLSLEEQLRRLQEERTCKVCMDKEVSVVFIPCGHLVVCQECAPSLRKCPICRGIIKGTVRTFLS

Variant	effect of a mutation on the interaction
F102C	with no effect

Variants of: B1
Conditions: with brd4_human BRD4, O60885
Remark: another data set of the same source

Variant	effect of a mutation on the interaction
F102C	with no effect

Variants of: B1
Conditions: with baba2_human BABAM2, Q9NXR7

Variant	effect of a mutation on the interaction
F102C	with no effect

Variants of: B1
Conditions: with btg1_human BTG1, P62324

Variant	effect of a mutation on the interaction
F102C	with no effect

Variants of: B1
Conditions: with btk_human BTK

Variant	effect of a mutation on the interaction
F102C	with no effect

Variants of: B1
Conditions: with ccnd1_human CCND1, P24385

Variant	effect of a mutation on the interaction
F102C	with no effect

Variants of: B1
Conditions: with ccnd2_human CCND2, P30279

Variant	effect of a mutation on the interaction
F102C	with no effect

Variants of: B1
Conditions: with ccnd3_human CCND3, P30281

Variant	effect of a mutation on the interaction
F102C	with no effect

Variants of: B1
Conditions: with cd44_human CD44, P16070

Variant	effect of a mutation on the interaction
F102C	with no effect

Variants of: B1
Conditions: with cd79b_human CD79B

Variant	effect of a mutation on the interaction
F102C	with no effect

Variants of: B1
Conditions: with cdc27_human CDC27, P30260
cdc27_human CDC27, P30260, sequence (P30260 whole entry): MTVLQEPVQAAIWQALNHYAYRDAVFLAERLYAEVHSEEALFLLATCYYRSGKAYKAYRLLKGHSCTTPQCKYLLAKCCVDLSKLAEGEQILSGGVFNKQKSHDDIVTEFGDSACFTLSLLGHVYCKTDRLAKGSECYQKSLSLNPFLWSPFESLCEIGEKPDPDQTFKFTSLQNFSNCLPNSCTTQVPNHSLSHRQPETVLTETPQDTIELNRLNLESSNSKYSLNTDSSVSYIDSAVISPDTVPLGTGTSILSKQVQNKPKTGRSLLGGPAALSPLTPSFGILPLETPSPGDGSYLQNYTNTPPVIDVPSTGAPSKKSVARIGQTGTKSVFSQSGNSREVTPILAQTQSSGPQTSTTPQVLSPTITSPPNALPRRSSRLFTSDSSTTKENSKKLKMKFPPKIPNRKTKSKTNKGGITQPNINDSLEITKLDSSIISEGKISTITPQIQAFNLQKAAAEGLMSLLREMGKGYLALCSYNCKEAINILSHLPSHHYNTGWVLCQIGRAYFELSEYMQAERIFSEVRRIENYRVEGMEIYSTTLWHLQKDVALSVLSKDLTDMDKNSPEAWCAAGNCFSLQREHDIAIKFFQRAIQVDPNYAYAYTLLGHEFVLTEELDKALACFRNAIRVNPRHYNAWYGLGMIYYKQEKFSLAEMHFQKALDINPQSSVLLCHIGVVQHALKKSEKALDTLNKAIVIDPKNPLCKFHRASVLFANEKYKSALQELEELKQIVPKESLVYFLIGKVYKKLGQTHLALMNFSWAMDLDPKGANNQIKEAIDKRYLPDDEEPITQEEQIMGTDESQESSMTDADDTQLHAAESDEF

Variant	effect of a mutation on the interaction
F102C	with no effect

Variants of: B1
Conditions: with cdc73_human CDC73, Q6P1J9

Variant	effect of a mutation on the interaction
F102C	with no effect

Variants of: B1
Conditions: with cdk4_human CDK4, P11802
cdk4_human CDK4, P11802, sequence (P11802 whole entry): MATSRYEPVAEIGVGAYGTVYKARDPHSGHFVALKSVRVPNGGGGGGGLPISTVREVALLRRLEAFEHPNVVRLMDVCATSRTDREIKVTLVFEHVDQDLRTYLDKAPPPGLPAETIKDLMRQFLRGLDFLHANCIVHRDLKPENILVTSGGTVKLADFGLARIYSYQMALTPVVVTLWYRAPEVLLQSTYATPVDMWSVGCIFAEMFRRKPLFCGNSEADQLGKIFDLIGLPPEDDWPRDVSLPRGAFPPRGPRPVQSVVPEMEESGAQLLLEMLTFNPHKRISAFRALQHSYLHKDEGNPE

Variant	effect of a mutation on the interaction
F102C	with no effect

Variants of: B1
Conditions: with cdk6_human CDK6, Q00534
cdk6_human CDK6, Q00534, sequence (Q00534 whole entry): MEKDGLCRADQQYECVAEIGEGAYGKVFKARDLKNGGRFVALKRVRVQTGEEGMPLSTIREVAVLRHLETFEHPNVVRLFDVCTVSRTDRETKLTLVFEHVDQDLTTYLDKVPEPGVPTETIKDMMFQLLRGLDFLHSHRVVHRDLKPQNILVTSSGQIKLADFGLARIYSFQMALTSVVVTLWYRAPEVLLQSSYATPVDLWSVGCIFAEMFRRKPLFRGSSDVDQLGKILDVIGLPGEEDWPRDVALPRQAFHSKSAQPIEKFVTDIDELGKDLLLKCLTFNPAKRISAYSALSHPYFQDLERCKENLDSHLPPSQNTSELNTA

Variant	effect of a mutation on the interaction
F102C	with no effect

Variants of: B1
Conditions: with cdn2c_human CDKN2C

Variant	effect of a mutation on the interaction
F102C	with no effect

Variants of: B1
Conditions: with chd1l_human CHD1L

Variant	effect of a mutation on the interaction
F102C	with no effect

Variants of: B1
Conditions: with chd2_human CHD2, O14647

Variant	effect of a mutation on the interaction
F102C	with no effect

Variants of: B1
Conditions: with ch3l1_human CHI3L1, P36222

Variant	effect of a mutation on the interaction
F102C	with no effect

Variants of: B1
Conditions: with ctla4_human CTLA4, P16410

Variant	effect of a mutation on the interaction
F102C	with no effect

Variants of: B1
Conditions: with cul3_human CUL3, Q13618

Variant	effect of a mutation on the interaction
F102C	with no effect

Variants of: B1
Conditions: with cul4b_human CUL4B

Variant	effect of a mutation on the interaction
F102C	with no effect

Variants of: B1
Conditions: with daxx_human DAXX

Variant	effect of a mutation on the interaction
F102C	with no effect

Variants of: B1
Conditions: with ddx5_human DDX5, P17844

Variant	effect of a mutation on the interaction
F102C	with no effect

Variants of: B1
Conditions: with dll3_human DLL3, Q9NYJ7
dll3_human DLL3, Q9NYJ7, sequence (Q9NYJ7 whole entry): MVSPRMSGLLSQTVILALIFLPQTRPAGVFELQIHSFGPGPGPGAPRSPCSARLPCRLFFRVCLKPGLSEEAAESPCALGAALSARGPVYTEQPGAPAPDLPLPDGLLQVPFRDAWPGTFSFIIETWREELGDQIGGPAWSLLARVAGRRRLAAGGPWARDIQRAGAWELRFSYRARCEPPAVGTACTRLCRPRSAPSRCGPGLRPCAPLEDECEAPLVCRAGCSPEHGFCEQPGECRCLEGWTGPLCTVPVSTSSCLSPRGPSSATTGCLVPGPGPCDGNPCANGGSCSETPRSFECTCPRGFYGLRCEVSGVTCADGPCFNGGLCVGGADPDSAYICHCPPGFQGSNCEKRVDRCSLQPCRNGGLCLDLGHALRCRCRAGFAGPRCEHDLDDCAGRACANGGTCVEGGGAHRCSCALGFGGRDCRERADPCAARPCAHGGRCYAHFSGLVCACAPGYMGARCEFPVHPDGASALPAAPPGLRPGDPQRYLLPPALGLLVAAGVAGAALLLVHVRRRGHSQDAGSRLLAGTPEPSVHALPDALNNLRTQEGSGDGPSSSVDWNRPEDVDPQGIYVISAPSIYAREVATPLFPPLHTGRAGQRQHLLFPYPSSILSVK

Variant	effect of a mutation on the interaction
F102C	with no effect

Variants of: B1
Conditions: with duox2_human DUOX2, Q9NRD8

Variant	effect of a mutation on the interaction
F102C	with no effect

Variants of: B1
Conditions: with e2f2_human E2F2, Q14209

Variant	effect of a mutation on the interaction
F102C	with no effect

Variants of: B1
Conditions: with e2f3_human E2F3, O00716

Variant	effect of a mutation on the interaction
F102C	with no effect

Variants of: B1
Conditions: with e2f5_human E2F5, Q15329

Variant	effect of a mutation on the interaction
F102C	with no effect

Variants of: B1
Conditions: with e2f6_human E2F6, O75461
e2f6_human E2F6, O75461, sequence (O75461 whole entry): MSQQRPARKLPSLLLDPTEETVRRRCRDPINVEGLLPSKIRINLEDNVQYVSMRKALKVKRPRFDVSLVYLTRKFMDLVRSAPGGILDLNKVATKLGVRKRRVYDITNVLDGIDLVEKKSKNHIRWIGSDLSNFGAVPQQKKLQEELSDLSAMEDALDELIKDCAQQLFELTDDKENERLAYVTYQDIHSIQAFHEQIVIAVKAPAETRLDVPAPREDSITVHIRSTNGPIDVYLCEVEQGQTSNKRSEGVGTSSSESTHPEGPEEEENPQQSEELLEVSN

Variant	effect of a mutation on the interaction
F102C	with no effect

Variants of: B1
Conditions: with e2f8_human E2F8, A0AVK6

Variant	effect of a mutation on the interaction
F102C	with no effect

Variants of: B1
Conditions: with if4e_human EIF4E

Variant	effect of a mutation on the interaction
F102C	with no effect

Variants of: B1
Conditions: with epha7_human EPHA7, Q15375

Variant	effect of a mutation on the interaction
F102C	with no effect

Variants of: B1
Conditions: with ephb1_human EPHB1, P54762

Variant	effect of a mutation on the interaction
F102C	with no effect

Variants of: B1
Conditions: with erbb3_human ERBB3, P21860

Variant	effect of a mutation on the interaction
F102C	with no effect

Variants of: B1
Conditions: with erbb4_human ERBB4, Q15303

Variant	effect of a mutation on the interaction
F102C	with no effect

Variants of: B1
Conditions: with esr1_human ESR1, P03372

Variant	effect of a mutation on the interaction
F102C	with no effect

Variants of: B1
Conditions: with etv1_human ETV1, P50549

Variant	effect of a mutation on the interaction
F102C	with no effect

Variants of: B1
Conditions: with ezh1_human EZH1, Q92800

Variant	effect of a mutation on the interaction
F102C	with no effect

Variants of: B1
Conditions: with ezh2_human EZH2, Q15910

Variant	effect of a mutation on the interaction
F102C	with no effect

Variants of: B1
Conditions: with facd2_human FANCD2, Q9BXW9
facd2_human FANCD2, Q9BXW9, sequence (Q9BXW9 whole entry): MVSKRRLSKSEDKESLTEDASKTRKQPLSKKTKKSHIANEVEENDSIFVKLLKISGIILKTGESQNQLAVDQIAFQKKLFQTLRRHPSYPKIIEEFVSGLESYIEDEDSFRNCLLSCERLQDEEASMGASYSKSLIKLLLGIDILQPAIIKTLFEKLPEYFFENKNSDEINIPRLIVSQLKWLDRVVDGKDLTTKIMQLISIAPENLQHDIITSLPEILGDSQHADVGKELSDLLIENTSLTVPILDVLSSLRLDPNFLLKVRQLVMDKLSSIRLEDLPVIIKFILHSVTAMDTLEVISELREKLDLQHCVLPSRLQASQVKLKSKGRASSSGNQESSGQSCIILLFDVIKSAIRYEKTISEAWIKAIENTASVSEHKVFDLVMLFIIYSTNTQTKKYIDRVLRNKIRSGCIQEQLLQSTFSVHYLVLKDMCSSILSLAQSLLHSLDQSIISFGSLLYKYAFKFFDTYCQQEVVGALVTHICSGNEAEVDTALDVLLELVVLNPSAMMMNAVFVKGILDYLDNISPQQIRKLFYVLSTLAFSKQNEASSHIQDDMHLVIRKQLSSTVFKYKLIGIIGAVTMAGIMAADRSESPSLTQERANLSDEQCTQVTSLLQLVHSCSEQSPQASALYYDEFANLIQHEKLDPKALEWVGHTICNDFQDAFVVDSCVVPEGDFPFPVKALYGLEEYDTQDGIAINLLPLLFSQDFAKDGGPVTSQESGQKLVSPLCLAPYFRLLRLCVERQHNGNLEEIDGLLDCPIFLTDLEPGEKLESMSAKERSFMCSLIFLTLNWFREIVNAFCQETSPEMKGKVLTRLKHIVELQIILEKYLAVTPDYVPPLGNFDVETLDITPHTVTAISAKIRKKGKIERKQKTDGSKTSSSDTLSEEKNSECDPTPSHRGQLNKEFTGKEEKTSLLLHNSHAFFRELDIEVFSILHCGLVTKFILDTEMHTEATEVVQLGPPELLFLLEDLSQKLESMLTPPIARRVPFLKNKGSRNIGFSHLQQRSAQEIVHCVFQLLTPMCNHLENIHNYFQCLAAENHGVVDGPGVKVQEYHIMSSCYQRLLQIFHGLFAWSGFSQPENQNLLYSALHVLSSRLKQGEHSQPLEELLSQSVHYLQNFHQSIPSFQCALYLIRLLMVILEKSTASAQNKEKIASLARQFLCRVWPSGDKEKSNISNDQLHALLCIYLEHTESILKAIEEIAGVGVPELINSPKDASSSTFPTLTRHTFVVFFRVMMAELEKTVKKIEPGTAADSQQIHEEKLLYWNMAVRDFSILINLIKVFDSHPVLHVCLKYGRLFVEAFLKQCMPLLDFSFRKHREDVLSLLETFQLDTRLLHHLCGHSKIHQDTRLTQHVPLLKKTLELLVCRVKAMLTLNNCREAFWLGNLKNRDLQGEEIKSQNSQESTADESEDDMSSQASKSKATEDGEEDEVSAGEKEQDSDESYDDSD

Variant	effect of a mutation on the interaction
F102C	with no effect

Variants of: B1
Conditions: with fgf19_human FGF19, O95750

Variant	effect of a mutation on the interaction
F102C	with no effect

Variants of: B1
Conditions: with fgfp1_human FGFBP1, Q14512

Variant	effect of a mutation on the interaction
F102C	with no effect

Variants of: B1
Conditions: with fgfr4_human FGFR4, P22455

Variant	effect of a mutation on the interaction
F102C	with no effect

Variants of: B1
Conditions: with fumh_human FH

Variant	effect of a mutation on the interaction
F102C	with no effect

Variants of: B1
Conditions: with fzr1_human FZR1, Q9UM11
fzr1_human FZR1, Q9UM11, sequence (Q9UM11 whole entry): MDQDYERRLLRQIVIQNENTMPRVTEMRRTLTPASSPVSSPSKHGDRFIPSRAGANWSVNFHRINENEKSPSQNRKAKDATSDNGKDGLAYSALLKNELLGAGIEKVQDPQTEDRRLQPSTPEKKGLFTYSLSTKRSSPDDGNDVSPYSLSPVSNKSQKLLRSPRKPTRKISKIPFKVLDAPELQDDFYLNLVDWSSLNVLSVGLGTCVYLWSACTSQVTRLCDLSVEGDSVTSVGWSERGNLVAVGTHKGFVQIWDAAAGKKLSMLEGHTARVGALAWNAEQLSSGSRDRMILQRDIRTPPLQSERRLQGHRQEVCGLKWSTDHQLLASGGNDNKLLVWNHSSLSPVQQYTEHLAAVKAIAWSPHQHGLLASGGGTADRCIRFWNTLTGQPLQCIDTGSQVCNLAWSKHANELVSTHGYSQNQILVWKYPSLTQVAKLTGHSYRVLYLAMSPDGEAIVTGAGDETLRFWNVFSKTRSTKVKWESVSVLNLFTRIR

Variant	effect of a mutation on the interaction
F102C	with no effect

Variants of: B1
Conditions: with gbra6_human GABRA6, Q16445

Variant	effect of a mutation on the interaction
F102C	with no effect

Variants of: B1
Conditions: with gata1_human GATA1, P15976

Variant	effect of a mutation on the interaction
F102C	with no effect

Variants of: B1
Conditions: with p66b_human GATAD2B

Variant	effect of a mutation on the interaction
F102C	with no effect

Variants of: B1
Conditions: with gna11_human GNA11, P29992

Variant	effect of a mutation on the interaction
F102C	with no effect

Variants of: B1
Conditions: with gna13_human GNA13, Q14344

Variant	effect of a mutation on the interaction
F102C	with no effect

Variants of: B1
Conditions: with gnaq_human GNAQ

Variant	effect of a mutation on the interaction
F102C	with no effect

Variants of: B1
Conditions: with grm1_human GRM1, Q13255

Variant	effect of a mutation on the interaction
F102C	with no effect

Variants of: B1
Conditions: with grm3_human GRM3, Q14832

Variant	effect of a mutation on the interaction
F102C	with no effect

Variants of: B1
Conditions: with gtpb4_human GTPBP4, Q9BZE4

Variant	effect of a mutation on the interaction
F102C	with no effect

Variants of: B1
Conditions: with h33_human H3-3A

Variant	effect of a mutation on the interaction
F102C	with no effect

Variants of: B1
Conditions: with hdac1_human HDAC1, Q13547

Variant	effect of a mutation on the interaction
F102C	with no effect

Variants of: B1
Conditions: with hdac3_human HDAC3, O15379

Variant	effect of a mutation on the interaction
F102C	with no effect

Variants of: B1
Conditions: with hgf_human HGF

Variant	effect of a mutation on the interaction
F102C	with no effect

Variants of: B1
Conditions: with h31_human H3C1, P68431

Variant	effect of a mutation on the interaction
F102C	with no effect

Variants of: B1
Conditions: with hlab_human HLA-B

Variant	effect of a mutation on the interaction
F102C	with no effect

Variants of: B1
Conditions: with il7ra_human IL7R

Variant	effect of a mutation on the interaction
F102C	with no effect

Variants of: B1
Conditions: with int12_human INTS12, Q96CB8

Variant	effect of a mutation on the interaction
F102C	with no effect

Variants of: B1
Conditions: with jak1_human JAK1, P23458

Variant	effect of a mutation on the interaction
F102C	with no effect

Variants of: B1
Conditions: with jak3_human JAK3, P52333

Variant	effect of a mutation on the interaction
F102C	with no effect

Variants of: B1
Conditions: with kat2a_human KAT2A

Variant	effect of a mutation on the interaction
F102C	with no effect
